# Results reported in doi:10.1101/365775 (bioRxiv, 2018).
# B1: Sec18_(His8) (natural protein, yeast, UniProt P18759 1-758, looked up)
# chain: MFKIPGFGKAAANHTPPDMTNMDTRTRHLKVSNCPNNSYALANVAAVSPNDFPNNIYIIIDNLFVFTTRHSNDIPPGTIGFNGNQRTWGGWSLNQDVQAKAFDLFKYSGKQSYLGSIDIDISFRARGKAVSTVFDQDELAKQFVRCYESQIFSPTQYLIMEFQGHFFDLKIRNVQAIDLGDIEPTSAVATGIETKGILTKQTQINFFKGRDGLVNLKSSNSLRPRSNAVIRPDFKFEDLGVGGLDKEFTKIFRRAFASRIFPPSVIEKLGISHVKGLLLYGPPGTGKTLIARKIGTMLNAKEPKIVNGPEILSKYVGSSEENIRNLFKDAEAEYRAKGEESSLHIIIFDELDSVFKQRGSRGDGTGVGDNVVNQLLAKMDGVDQLNNILVIGMTNRKDLIDSALLRPGRFEVQVEIHLPDEKGRLQIFDIQTKKMRENNMMSDDVNLAELAALTKNFSGAEIEGLVKSASSFAINKTVNIGKGATKLNTKDIAKLKVTREDFLNALNDVTPAFGISEEDLKTCVEGGMMLYSERVNSILKNGARYVRQVRESDKSRLVSLLIHGPAGSGKTALAAEIALKSGFPFIRLISPNELSGMSESAKIAYIDNTFRDAYKSPLNILVIDSLETLVDWVPIGPRFSNNILQMLKVALKRKPPQDRRLLIMTTTSAYSVLQQMDILSCFDNEIAVPNMTNLDELNNVMIESNFLDDAGRVKVINELSRSCPNFNVGIKKTLTNIETARHDEDPVNELVELMTQSA
# Target: the molecule itself
# Assay: SEC
protein,measurement,value
B1,stoichiometry N,6
